Measurements as given in the supplement of paper PMC5998384.

Assays:
HeLa Kyoto [1] = assay: thermal stability score vs G1/S (z-score of summed log2 fold changes over temperatures); higher = more thermally stable than in G1/S
HeLa Kyoto [2] = assay: solubility change mitosis vs G1/S (difference of NP-40 vs SDS log2 ratios) (log2 ratio difference); higher = more soluble in mitosis
HeLa Kyoto [3] = assay: melting temperature (median over replicates), in situ; higher = more thermally stable
HeLa Kyoto [4] = assay: solubility in G1/S (NP-40 vs SDS abundance) (log2 ratio); higher = more soluble; settings: cell cycle stage: G1/S
[5] = cell cycle stage: early G1 (4.5 h after nocodazole release)
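For melting temperature (median over replicates), in situ in this document: HeLa Kyoto cells synchronized by double thymidine or nocodazole block, proteins quantified by TMT10plex mass spectrometry, three independent biological replicates.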
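For solubility change mitosis vs G1/S (difference of NP-40 vs SDS log2 ratios) in this document: synchronized HeLa Kyoto cells (double thymidine block for G1/S, nocodazole release for mitosis), protein amounts in NP-40 versus SDS lysates quantified by mass spectrometry, three biological replicates.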
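For solubility in G1/S (NP-40 vs SDS abundance) in this document: HeLa Kyoto cells arrested at G1/S by double thymidine block, proteins quantified by TMT10plex mass spectrometry in mild NP-40 versus SDS extracts, three biological replicates.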
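For thermal stability score vs G1/S (z-score of summed log2 fold changes over temperatures) in this document: synchronized HeLa Kyoto cells, proteins quantified by TMT10plex mass spectrometry, three biological replicates, mitosis taken 0.5 h after nocodazole release, G1/S directly after double thymidine block.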

Sequence | thermal stability score (HeLa Kyoto [1]; [5]) | thermal stability score (HeLa Kyoto [1]; cell cycle stage: mitosis) | solubility change mitosis (log2) (HeLa Kyoto [2]) | melting temperature (HeLa Kyoto [3]; cell cycle stage: G1/S) | melting temperature (HeLa Kyoto [3]; cell cycle stage: mitosis) | solubility in G1/S (log2) (HeLa Kyoto [4])
MSVVGIDLGFQSCYVAVARAGGIETIANEYSDRCTPACISFGPKNRSIGAAAKSQVISNAKNTVQGFKRFHGRAFSDPFVEAEKSNLAYDIVQLPTGLTGIKVTYMEEERNFTTEQVTAMLLSKLKETAESVLKKPVVDCVVSVPCFYTDAERRSVMDATQIAGLNCLRLMNETTAVALAYGIYKQDLPALEEKPRNVVFVDMGHSAYQVSVCAFNRGKLKVLATAFDTTLGGRKFDEVLVNHFCEEFGKKYKLDIKSKIRALLRLSQECEKLKKLMSANASDLPLSIECFMNDVDVSGTMNRGKFLEMCNDLLARVEPPLRSVLEQTKLKKEDIYAVEIVGGATRIPAVKEKISKFFGKELSTTLNADEAVTRGCALQCAILSPAFKVREFSITDVVPYPISLRWNSPAEEGSSDCEVFSKNHAAPFSKVLTFYRKEPFTLEAYYSSPQDLPYPDPAIAQFSVQKVTPQSDGSSSKVKVKVRVNVHGIFSVSSASLVEVHKSEENEEPMETDQNAKEEEKMQVDQEEPHVEEQQQQTPAENKAESEEMETSQAGSKDKKMDQPPQAKKAKVKTSTVDLPIENQLLWQIDREMLNLYIENEGKMIMQDKLEKERNDAKNAVEEYVYEMRDKLSGEYEKFVSEDDRNSFTLKLEDTENWLYEDGEDQPKQVYVDKLAELKNLGQPIKIRFQESEERPKLFEELGKQIQQYMKIISSFKNKEDQYDHLDAADMTKVEKSTNEAMEWMNNKLNLQNKQSLTMDPVVKSKEIEAKIKELTSTCSPIISKPKPKVEPPKEEQKNAEQNGPVDGQGDNPGPQAAEQGTDTAVPSDSDKKLPEMDID [HSPA4] | 0.436 | 1.85 | -0.0794 | 51.3 °C | 51.1 °C | 0.198
MSWAARPPFLPQRHAAGQCGPVGVRKEMHCGVASRWRRRRPWLDPAAAAAAAVAGGEQQTPEPEPGEAGRDGMGDSGRDSRSPDSSSPNPLPQGVPPPSPPGPPLPPSTAPSLGGSGAPPPPPMPPPPLGSPFPVISSSMGSPGLPPPAPPGFSGPVSSPQINSTVSLPGGGSGPPEDVKPPVLGVRGLHCPPPPGGPGAGKRLCAICGDRSSGKHYGVYSCEGCKGFFKRTIRKDLTYSCRDNKDCTVDKRQRNRCQYCRYQKCLATGMKREAVQEERQRGKDKDGDGEGAGGAPEEMPVDRILEAELAVEQKSDQGVEGPGGTGGSGSSPNDPVTNICQAADKQLFTLVEWAKRIPHFSSLPLDDQVILLRAGWNELLIASFSHRSIDVRDGILLATGLHVHRNSAHSAGVGAIFDRVLTELVSKMRDMRMDKTELGCLRAIILFNPDAKGLSNPSEVEVLREKVYASLETYCKQKYPEQQGRFAKLLLRLPALRSIGLKCLEHLFFFKLIGDTPIDTFLMEMLEAPHQLA [RXRB] | 0.348 | 0.163 | -0.14 | 47.6 °C | 49.1 °C | 0.264
MSWGTELWDQFDNLEKHTQWGIDILEKYIKFVKERTEIELSYAKQLRNLSKKYQPKKNSKEEEEYKYTSCKAFISNLNEMNDYAGQHEVISENMASQIIVDLARYVQELKQERKSNFHDGRKAQQHIETCWKQLESSKRRFERDCKEADRAQQYFEKMDADINVTKADVEKARQQAQIRHQMAEDSKADYSSILQKFNHEQHEYYHTHIPNIFQKIQEMEERRIVRMGESMKTYAEVDRQVIPIIGKCLDGIVKAAESIDQKNDSQLVIEAYKSGFEPPGDIEFEDYTQPMKRTVSDNSLSNSRGEGKPDLKFGGKSKGKLWPFIKKNKLMSLLTSPHQPPPPPPASASPSAVPNGPQSPKQQKEPLSHRFNEFMTSKPKIHCFRSLKRGLSLKLGATPEDFSNLPPEQRRKKLQQKVDELNKEIQKEMDQRDAITKMKDVYLKNPQMGDPASLDHKLAEVSQNIEKLRVETQKFEAWLAEVEGRLPARSEQARRQSGLYDSQNPPTVNNCAQDRESPDGSYTEEQSQESEMKVLATDFDDEFDDEEPLPAIGTCKALYTFEGQNEGTISVVEGETLYVIEEDKGDGWTRIRRNEDEEGYVPTSYVEVCLDKNAKDS [FNBP1] | 0.62 | 0.929 | -0.129 | 49.7 °C | 49.4 °C | 0.298
MSWGTELWDQFDSLDKHTQWGIDFLERYAKFVKERIEIEQNYAKQLRNLVKKYCPKRSSKDEEPRFTSCVAFFNILNELNDYAGQREVVAEEMAHRVYGELMRYAHDLKTERKMHLQEGRKAQQYLDMCWKQMDNSKKKFERECREAEKAQQSYERLDNDTNATKADVEKAKQQLNLRTHMADENKNEYAAQLQNFNGEQHKHFYVVIPQIYKQLQEMDERRTIKLSECYRGFADSERKVIPIISKCLEGMILAAKSVDERRDSQMVVDSFKSGFEPPGDFPFEDYSQHIYRTISDGTISASKQESGKMDAKTTVGKAKGKLWLFGKKPKPQSPPLTPTSLFTSSTPNGSQFLTFSIEPVHYCMNEIKTGKPRIPSFRSLKRGWSVKMGPALEDFSHLPPEQRRKKLQQRIDELNRELQKESDQKDALNKMKDVYEKNPQMGDPGSLQPKLAETMNNIDRLRMEIHKNEAWLSEVEGKTGGRGDRRHSSDINHLVTQGRESPEGSYTDDANQEVRGPPQQHGHHNEFDDEFEDDDPLPAIGHCKAIYPFDGHNEGTLAMKEGEVLYIIEEDKGDGWTRARRQNGEEGYVPTSYIDVTLEKNSKGS [FNBP1L] | -0.0981 | -0.548 | -0.034 | 51.1 °C | 51.1 °C | 0.339
MSWLSSSQGVVLTAYHPSGKDQTVGNSHAKAGEEATSSRRYGQYTMNQESTTIKVMEKPPFDRSISQDSLDELSMEDYWIELENIKKSSENSQEDQEVVVVKEPDEGELEEEWLKEAGLSNLFGESAGDPQESIVFLSTLTRTQAAAVQKRVETVSQTLRKKNKQYQIPDVRDIFAQQRESKETAPGGTESQSLRTNENKYQGRDDEASNLVGEEKLIPPEETPAPETDINLEVSFAEQALNQKESSKEKIQKSKGDDATLPSFRLPKDKTGTTRIGDLAPQDMKKVCHLALIELTALYDVLGIELKQQKAVKIKTKDSGLFCVPLTALLEQDQRKVPGMRIPLIFQKLISRIEERGLETEGLLRIPGAAIRIKNLCQELEAKFYEGTFNWESVKQHDAASLLKLFIRELPQPLLSVEYLKAFQAVQNLPTKKQQLQALNLLVILLPDANRDTLKALLEFLQRVIDNKEKNKMTVMNVAMVMAPNLFMCHALGLKSSEQREFVMAAGTANTMHLLIKYQKLLWTIPKFIVNQVRKQNTENHKKDKRAMKKLLKKMAYDREKYEKQDKSTNDADVPQGVIRVQAPHLSKVSMAIQLTEELKASDVLARFLSQESGVAQTLKKGEVFLYEIGGNIGERCLDDDTYMKDLYQLNPNAEWVIKSKPL [ARHGAP18] | 0.338 | 0.693 | -0.128 | 50 °C | 50 °C | 0.188
MSYDYHQNWGRDGGPRSSGGGYGGGPAGGHGGNRGSGGGGGGGGGGRGGRGRHPGHLKGREIGMWYAKKQGQKNKEAERQERAVVHMDERREEQIVQLLNSVQAKNDKESEAQISWFAPEDHGYGTEVSTKNTPCSENKLDIQEKKLINQEKKMFRIRNRSYIDRDSEYLLQENEPDGTLDQKLLEDLQKKKNDLRYIEMQHFREKLPSYGMQKELVNLIDNHQVTVISGETGCGKTTQVTQFILDNYIERGKGSACRIVCTQPRRISAISVAERVAAERAESCGSGNSTGYQIRLQSRLPRKQGSILYCTTGIILQWLQSDPYLSSVSHIVLDEIHERNLQSDVLMTVVKDLLNFRSDLKVILMSATLNAEKFSEYFGNCPMIHIPGFTFPVVEYLLEDVIEKIRYVPEQKEHRSQFKRGFMQGHVNRQEKEEKEAIYKERWPDYVRELRRRYSASTVDVIEMMEDDKVDLNLIVALIRYIVLEEEDGAILVFLPGWDNISTLHDLLMSQVMFKSDKFLIIPLHSLMPTVNQTQVFKRTPPGVRKIVIATNIAETSITIDDVVYVIDGGKIKETHFDTQNNISTMSAEWVSKANAKQRKGRAGRVQPGHCYHLYNGLRASLLDDYQLPEILRTPLEELCLQIKILRLGGIAYFLSRLMDPPSNEAVLLSIRHLMELNALDKQEELTPLGVHLARLPVEPHIGKMILFGALFCCLDPVLTIAASLSFKDPFVIPLGKEKIADARRKELAKDTRSDHLTVVNAFEGWEEARRRGFRYEKDYCWEYFLSSNTLQMLHNMKGQFAEHLLGAGFVSSRNPKDPESNINSDNEKIIKAVICAGLYPKVAKIRLNLGKKRKMVKVYTKTDGLVAVHPKSVNVEQTDFHYNWLIYHLKMRTSSIYLYDCTEVSPYCLLFFGGDISIQKDNDQETIAVDEWIVFQSPARIAHLVKELRKELDILLQEKIESPHPVDWNDTKSRDCAVLSAIIDLIKTQEKATPRNFPPRFQDGYYS [DHX36] | 0.36 | 0.349 | -0.0322 | 50.8 °C | 51.5 °C | -0.25
MSYGPLDMYRNPGPSGPQLRDFSSIIQTCSGNIQRISQATAQIKNLMSQLGTKQDSSKLQENLQQLQHSTNQLAKETNELLKELGSLPLPLSTSEQRQQRLQKERLMNDFSAALNNFQAVQRRVSEKEKESIARARAGSRLSAEERQREEQLVSFDSHEEWNQMQSQEDEVAITEQDLELIKERETAIRQLEADILDVNQIFKDLAMMIHDQGDLIDSIEANVESSEVHVERATEQLQRAAYYQKKSRKKMCILVLVLSVIILILGLIIWLVYKTK [STX12] | -1.25 | -1.93 | 0.0226 | 53.9 °C | 54.3 °C | -0.121
MSYIPGQPVTAVVQRVEIHKLRQGENLILGFSIGGGIDQDPSQNPFSEDKTDKGIYVTRVSEGGPAEIAGLQIGDKIMQVNGWDMTMVTHDQARKRLTKRSEEVVRLLVTRQSLQKAVQQSMLS [TAX1BP3] | 1.74 | 1.25 | 0.0294 | 49.1 °C | 49.2 °C | 0.277
MSYPGYPPTGYPPFPGYPPAGQESSFPPSGQYPYPSGFPPMGGGAYPQVPSSGYPGAGGYPAPGGYPAPGGYPGAPQPGGAPSYPGVPPGQGFGVPPGGAGFSGYPQPPSQSYGGGPAQVPLPGGFPGGQMPSQYPGGQPTYPSQINTDSFSSYPVFSPVSLDYSSEPATVTQVTQGTIRPAANFDAIRDAEILRKAMKGFGTDEQAIVDVVANRSNDQRQKIKAAFKTSYGKDLIKDLKSELSGNMEELILALFMPPTYYDAWSLRKAMQGAGTQERVLIEILCTRTNQEIREIVRCYQSEFGRDLEKDIRSDTSGHFERLLVSMCQGNRDENQSINHQMAQEDAQRLYQAGEGRLGTDESCFNMILATRSFPQLRATMEAYSRMANRDLLSSVSREFSGYVESGLKTILQCALNRPAFFAERLYYAMKGAGTDDSTLVRIVVTRSEIDLVQIKQMFAQMYQKTLGTMIAGDTSGDYRRLLLAIVGQ [ANXA7] | 2.36 | 2 | 0.0486 | 50.7 °C | 51.3 °C | 0.437
MTAEDSTAAMSSDSAAGSSAKVPEGVAGAPNEAALLALMERTGYSMVQENGQRKYGGPPPGWEGPHPQRGCEVFVGKIPRDVYEDELVPVFEAVGRIYELRLMMDFDGKNRGYAFVMYCHKHEAKRAVRELNNYEIRPGRLLGVCCSVDNCRLFIGGIPKMKKREEILEEIAKVTEGVLDVIVYASAADKMKNRGFAFVEYESHRAAAMARRKLMPGRIQLWGHQIAVDWAEPEIDVDEDVMETVKILYVRNLMIETTEDTIKKSFGQFNPGCVERVKKIRDYAFVHFTSREDAVHAMNNLNGTELEGSCLEVTLAKPVDKEQYSRYQKAARGGGAAEAAQQPSYVYSCDPYTLAYYGYPYNALIGPNRDYFVKAGSIRGRGRGAAGNRAPGPRGSYLGGYSAGRGIYSRYHEGKGKQQEKGYELVPNLEIPTVNPVAIKPGTVAIPAIGAQYSMFPAAPAPKMIEDGKIHTVEHMISPIAVQPDPASAAAAAAAAAAAAAAVIPTVSTPPPFQGRPITPVYTVAPNVQRIPTAGIYGASYVPFAAPATATIATLQKNAAAAAAMYGGYAGYIPQAFPAAAIQVPIPDVYQTY [RBM47] | 0.77 | 1.83 | -0.0191 | 48.2 °C | 47.4 °C | -0.0256
